Source: publication PMC4232046, “The Janus transcription factor HapX controls fungal adaptation to both iron starvation and iron excess” (The EMBO Journal, 2014)

Biological target: the molecule itself
Assay: SEC-MALS; static light scattering (miniDawn TREOS, Optilab T-rEX refractometer) after Superdex 200 10/300 GL; molar mass by ASTRA 6

B1: Aspergillus fumigatus HapX(24–158) (domain or fragment, UniProt Q4WER3 24-158, looked up)
chain: SPSPGPGTPGSITSKEWVIPPRPKPGRKPATDTPPTKRKAQNRAAQRAFRERRAARVNELEEQIKKIEDEHEIHIAAFKEQITNLSREVEQCRSEMTWWRDRCHALEKEVSVERSAKEAIVKEFRSSLSDREAVR
notes: Cloned in pMAL-c2X with an extended N-terminus including a TEV site; Theoretical mass of the dimer 31.36 kDa; also called peptide corresponding to residues 24–158 of HapX
B1 was tested, and the “stoichiometry N” value was 2.
